Columns and labels:
APOBEC3A E72Q = APOBEC3A E72Q (human, UniProt P31941 1-199, E72Q); assay: fluorescence anisotropy
APOBEC3A E72A/C171A = APOBEC3A E72A/C171A (human, UniProt P31941 1-199, E72A;C171A); assay: fluorescence anisotropy
APOBEC3A E72A/C171A, sequence (P31941 whole entry E72A/C171A): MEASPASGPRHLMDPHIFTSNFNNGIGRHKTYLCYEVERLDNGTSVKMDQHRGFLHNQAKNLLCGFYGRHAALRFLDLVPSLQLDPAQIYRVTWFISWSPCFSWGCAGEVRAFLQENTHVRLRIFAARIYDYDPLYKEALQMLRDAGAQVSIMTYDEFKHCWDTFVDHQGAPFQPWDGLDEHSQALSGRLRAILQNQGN

APOBEC3A E72Q, sequence (P31941 whole entry E72Q): as the sequence (P31941 whole entry E72A/C171A) above, with A72Q, A171C counted along it

TTTTTTTTTTTTTTT (ssDNA) [polyT (TTT)] gave a Kd (APOBEC3A E72Q) of 205 ± 20 nM and a Kd (APOBEC3A E72A/C171A) of 502 ± 27 nM.

— paper PMC4874493
